The source of these data is the supplement of paper PMC10567573.

First the molecules themselves.
B1: GNB5 (parent)
chain: YYPSGDAFASGSDDATCRLYDLRA
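Further: lentivirally expressed fusions sorted by FACS into six bins by GFP to DsRed ratio, PSI derived from sequencing read proportions per bin multiplied by bin number.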

The variants in this data set derive from B1. The data set is described as follows: protein stability index of a GFP-peptide fusion (GPS, HEK-293T) (PSI 1-6); higher = more stable. Conditions: c terminus: a fixed tail appended.
For the variant YYPSGDAFASGSDDSTCRLYDLRA [A15S], the protein stability index came to 2.25.
As for YYPSGDAFASGSDDRTCRLYDLRA [A15R], the protein stability index came to 2.24.
With YYPSGDAFASGSDDKTCRLYDLRA [A15K], the protein stability index is 2.35.
On to YYPSGDAFASGSDDLTCRLYDLRA [A15L], for which the protein stability index was 2.15.
Next, YYPSGDAFASGSDDQTCRLYDLRA [A15Q]: 2.62.
For the variant YYPSGDAFASGSDDFTCRLYDLRA [A15F], the protein stability index was determined as 2.1.
As to YYPSGDAFASGSDDPTCRLYDLRA [A15P], the protein stability index was found to be 2.63.
Under YYPSGDAFASGSDDETCRLYDLRA [A15E] stands 2.75.
Next, YYPSGDAFASGSDDCTCRLYDLRA [A15C]: 1.98.
Next, YYPSGDAFASGSDDMTCRLYDLRA [A15M]: 2.36; YYPSGDAFASGSDDHTCRLYDLRA [A15H]: 2.05; YYPSGDAFASGSDDNTCRLYDLRA [A15N]: 2.61.
As for YYPSGDAFASGSDDGTCRLYDLRA [A15G], the protein stability index amounted to 2.87.
As for YYPSGDAFASGSDDDTCRLYDLRA [A15D], the protein stability index worked out at 3.4.
Next, YYPSGDAFASGSDDYTCRLYDLRA [A15Y]: 2.21.
Under YYPSGDAFASGSDDTTCRLYDLRA [A15T] stands 2.26; under YYPSGDAFASGSDDITCRLYDLRA [A15I], 1.97; under YYPSGDAFASGSDDWTCRLYDLRA [A15W], 2.56.
Next, YYPSGDAFASGSDDATCRLWDLRA [Y20W]: 2.33; YYPSGDAFASGSDDATCRLKDLRA [Y20K]: 2.88.
Take YYPSGDAFASGSDDATCRLPDLRA [Y20P]: the protein stability index came out at 3.32.
Under YYPSGDAFASGSDDATCRLEDLRA [Y20E] stands 3.15; under YYPSGDAFASGSDDATCRLTDLRA [Y20T], 2.65.
For YYPSGDAFASGSDDATCRLCDLRA [Y20C], the protein stability index came to 2.26.
Next, YYPSGDAFASGSDDATCRLFDLRA [Y20F]: 2.4; YYPSGDAFASGSDDATCRLMDLRA [Y20M]: 2.77; YYPSGDAFASGSDDATCRLNDLRA [Y20N]: 2.95.
Under YYPSGDAFASGSDDATCRLSDLRA [Y20S] stands 2.87; under YYPSGDAFASGSDDATCRLDDLRA [Y20D], 3.13; under YYPSGDAFASGSDDATCRLHDLRA [Y20H], 2.42.
Turning to YYPSGDAFASGSDDATCRLGDLRA [Y20G], the protein stability index turned out to be 2.63.
Under YYPSGDAFASGSDDATCRLQDLRA [Y20Q] stands 2.88; under YYPSGDAFASGSDDATCRLRDLRA [Y20R], 3.13; under YYPSGDAFASGSDDATCRLIDLRA [Y20I], 2.84.
In the case of YYPSGDAFASGSDDATCRLLDLRA [Y20L], the protein stability index came to 2.6.
Next, YYPSGDAFASGSDDATCRLVDLRA [Y20V]: 2.9; YYPSGDAFASGSDDATCRLADLRA [Y20A]: 2.73.
Next, YYPSGDAFASGSDDATCRVYDLRA [L19V]: 2.56; YYPSGDAFASGSDDATCRNYDLRA [L19N]: 2.72; YYPSGDAFASGSDDATCRHYDLRA [L19H]: 2.44.
On to YYPSGDAFASGSDDATCRWYDLRA [L19W], for which the protein stability index was 2.46.
With YYPSGDAFASGSDDATCREYDLRA [L19E], the protein stability index was 3.39.
Next, YYPSGDAFASGSDDATCRPYDLRA [L19P]: 2.61; YYPSGDAFASGSDDATCRIYDLRA [L19I]: 2.3.
As to YYPSGDAFASGSDDATCRKYDLRA [L19K], the protein stability index is 2.77.
Under YYPSGDAFASGSDDATCRRYDLRA [L19R] stands 2.55.
As to YYPSGDAFASGSDDATCRDYDLRA [L19D], the protein stability index is 3.34.
In the case of YYPSGDAFASGSDDATCRFYDLRA [L19F], the protein stability index was determined as 2.33.
For the variant YYPSGDAFASGSDDATCRSYDLRA [L19S], the protein stability index amounted to 2.87.
On to YYPSGDAFASGSDDATCRCYDLRA [L19C], for which the protein stability index was found to be 2.66.
Under YYPSGDAFASGSDDATCRAYDLRA [L19A] stands 2.87.
Under YYPSGDAFASGSDDATCRGYDLRA [L19G] stands 2.9; under YYPSGDAFASGSDDATCRYYDLRA [L19Y], 2.57; under YYPSGDAFASGSDDATCRQYDLRA [L19Q], 2.65.
YYPSGDAFASGSDDATCRMYDLRA [L19M]: the protein stability index stood at 2.5.
Under YYPSGDAFASGSDDATCRTYDLRA [L19T] stands 3.07; under YYPSGDAFASGSDRATCRLYDLRA [D14R], 1.9; under YYPSGDAFASGSDLATCRLYDLRA [D14L], 1.92.
Under YYPSGDAFASGSDGATCRLYDLRA [D14G] stands 2.52.
YYPSGDAFASGSDCATCRLYDLRA [D14C]: the protein stability index is 2.39.
Under YYPSGDAFASGSDAATCRLYDLRA [D14A] stands 1.91; under YYPSGDAFASGSDWATCRLYDLRA [D14W], 1.22.
Next, YYPSGDAFASGSDQATCRLYDLRA [D14Q]: 2.27; YYPSGDAFASGSDIATCRLYDLRA [D14I]: 2.65.
Consider YYPSGDAFASGSDTATCRLYDLRA [D14T], for which the protein stability index is 2.02.
On to YYPSGDAFASGSDKATCRLYDLRA [D14K], for which the protein stability index is 1.93.
For YYPSGDAFASGSDVATCRLYDLRA [D14V], the protein stability index was 2.27.
Next, YYPSGDAFASGSDHATCRLYDLRA [D14H]: 2.2; YYPSGDAFASGSDFATCRLYDLRA [D14F]: 2.12; YYPSGDAFASGSDMATCRLYDLRA [D14M]: 2.21.
Next, YYPSGDAFASGSDYATCRLYDLRA [D14Y]: 1.58; YYPSGDAFASGSDEATCRLYDLRA [D14E]: 2.55.
With YYPSGDAFASGSDNATCRLYDLRA [D14N], the protein stability index came out at 1.98.
Under YYPSGDAFASGSDSATCRLYDLRA [D14S] stands 1.94.
Under YYPSGDAFASGSDPATCRLYDLRA [D14P] stands 2.12; under YYPSGDAFASGSDDATHRLYDLRA [C17H], 2.56.
Next, YYPSGDAFASGSDDATLRLYDLRA [C17L]: 2.87; YYPSGDAFASGSDDATNRLYDLRA [C17N]: 2.8; YYPSGDAFASGSDDATWRLYDLRA [C17W]: 2.48.
On to YYPSGDAFASGSDDATDRLYDLRA [C17D], for which the protein stability index was 3.3.
Next, YYPSGDAFASGSDDATVRLYDLRA [C17V]: 2.85.
Next, YYPSGDAFASGSDDATRRLYDLRA [C17R]: 2.62; YYPSGDAFASGSDDATERLYDLRA [C17E]: 3.36.
On to YYPSGDAFASGSDDATKRLYDLRA [C17K], for which the protein stability index worked out at 2.69.
Take YYPSGDAFASGSDDATPRLYDLRA [C17P]: the protein stability index came out at 2.62.
Next, YYPSGDAFASGSDDATFRLYDLRA [C17F]: 2.07; YYPSGDAFASGSDDATMRLYDLRA [C17M]: 2.46; YYPSGDAFASGSDDATIRLYDLRA [C17I]: 2.89.
Under YYPSGDAFASGSDDATGRLYDLRA [C17G] stands 2.85; under YYPSGDAFASGSDDATQRLYDLRA [C17Q], 2.9; under YYPSGDAFASGSDDATTRLYDLRA [C17T], 2.61.
Next, YYPSGDAFASGSDDATSRLYDLRA [C17S]: 2.85; YYPSGDAFASGSDDATARLYDLRA [C17A]: 2.42.
For YYPSGDAFASGSDDATYRLYDLRA [C17Y], the protein stability index was 2.23.
